# In patent US20250066503A1, “CELL INJURY INDUCING THERAPEUTIC DRUG FOR USE IN CANCER THERAPY” (CHUGAI SEIYAKU KABUSHIKI KAISHA, priority 2016, published 2025):
# Substitutions are numbered along the chain they refer to. Several values for one entry are separate records, joined by “and”; a condition that tells them apart may be missing. Equal entries are not always repeated.
# B1: CE115HA251-E22Hh/L0000-k0/GL4-E22Hk/H0000-E22L (bispecific antibody, human IgG1, kappa, L234A L235A, N297A)
# heavy: QVQLVESGGGVVQPGRSLRLSCAASGFTFSNAWMHWVRQAPGKGLEWVAQIKAKSNNYATYYAESVKGRFTISRDDSKNSLYLQMNSLKTEDTAVYYCRYVHYYYYYGVDAWGQGTTVTVSSASTKGPSVFPLAPSSKSTSGGTAALGCLVKDYFPEPVTVSWNSGALTSGVHTFPAVLQSSGLYSLSSVVTVPSSSLGTQTYICNVNHKPSNTKVDKKVEPKSCDKTHTCPPCPAPEAAGGPSVFLFPPKPKDTLMISRTPEVTCVVVDVSHEDPEVKFNWYVDGVEVHNAKTKPREEQYASTYRVVSVLTVLHQDWLNGKEYKCKVSNKALPAPIEKTISKAKGQPREPQVYTLPPSRCELTKNQVSLSCAVKGFYPSDIAVEWESNGQPENNYKTTPPVLDSDGSFFLVSKLTVDKSRWQQGNVFSCSVMHEALHNHYTQKSLSLSPDYKDDDDK
# light: DIVMTQSPLSLPVTPGEPASISCRSSQSLVHSNRNTYLHWYQQKPGQAPRLLIYKVSNRFSGVPDRFSGSGSGTDFTLKISRVEAEDVGVYYCGQGTQVPYTFGQGTKLEIKRTVAAPSVFIFPPSDEQLKSGTASVVCLLNNFYPREAKVQWKVDNALQSGNSQESVTEQDSKDSTYSLSSTLTLSKADYEKHKVYACEVTHQGLSSPVTKSFNRGEC
# chain 1: DIVMTQSPLSLPVTPGEPASISCRSSQSLVHSNRNTYLHWYQQKPGQAPRLLIYKVSNRFSGVPDRFSGSGSGTDFTLKISRVEAEDVGVYYCSQNTHVPPTFGQGTKLEIKSSASTKGPSVFPLAPSSKSTSGGTAALGCLVKDYFPEPVTVSWNSGALTSGVHTFPAVLQSSGLYSLSSVVTVPSSSLGTQTYICNVNHKPSNTKVDKKVEPKSCDKTHTCPPCPAPEAAGGPSVFLFPPKPKDTLMISRTPEVTCVVVDVSHEDPEVKFNWYVDGVEVHNAKTKPREEQYASTYRVVSVLTVLHQDWLNGKEYKCKVSNKALPAPIEKTISKAKGQPREPQVCTLPPSRDELTKNQVSLWCLVKGFYPSDIAVEWESNGQPENNYKTTPPVLDSDGSFFLYSKLTVDKSRWQQGNVFSCSVMHEALHNHYTQKSLSLSPHHHHHHHH
# chain 2: QVQLVQSGAEVKKPGASVKVSCKASGYTFTDYEMHWIRQPPGQGLEWIGAIDPKTGDTAYSQKFKGRVTLTADKSTSTAYMELSSLTSEDTAVYYCTRFYSYTYWGQGTLVTVSSASVAAPSVFIFPPSDEQLKSGTASVVCLLNNFYPREAKVQWKVDNALQSGNSQESVTEQDSKDSTYSLSSTLTLSKADYEKHKVYACEVTHQGLSSPVTKSFNRGEC
# notes: ERY22 format
# B2: TR01H002-E22Hh/GLS3108-k0/GL4-E22Hk/H0000-E22L (bispecific antibody, human IgG1, kappa, L234A L235A, N297A)
# heavy: B1 heavy with A59K, T60K, D110Q
# light: B1 light with H39S
# chain 1: B1 chain 1
# chain 2: B1 chain 2
# notes: ERY22 format
# B3: CE115HA236-E22Hh/GLS3108-k0/GL4-E22Hk/H0000-E22L (bispecific antibody, human IgG1, kappa, L234A L235A, N297A)
# heavy: B1 heavy with Y105A, D110Q
# light: B1 light with H39S
# chain 1: B1 chain 1
# chain 2: B1 chain 2
# notes: ERY22 format
# B4: TR01H099-E2702GsKsc/none-Hi-E2704sE/L0011-k0 (antibody, V domains shown)
# VH: QVQLVESGGGLVQPGRSLRLSCAASGFTFSNAWMHWVRQAPGKGLEWVAQIKDKSQNYAQYYAESVKGRFTISRDDSKNSLYLQMNSLKTEDTAVYYCRYVHYAAGYGVDAWGQGTTVTVSS
# VL: DIVMTQSPLSLPVTPGEPASISCRSSQPLVHSNRNTYLHWYQQKPGQAPRLLIYKVSNRFSGVPDRFSGSGSGTDFTLKISRVEAEDVGVYYCGQGTQVPYTFGQGTKLEIKR
# notes: one-arm
# B5: TR01H040-E22Hh/none-Hi-Kn010G3/TR01L012-k0 (antibody, V domains shown)
# VH: B4 VH with Q60T, D75A, L81I, A104S, G106S
# VL: DIVMTQSPLSLPVTPGEPASISCRSSQSLVHSNRNTYLHWYLQKPGQSPQLLIYKVSNRFRGVPDRFSGSGSGTDFTLKISRVEAEDVGVYYCGQGTQVPYTFGQGTKVEIE
# notes: one-arm
# B6: TR01H040-E22Hh/none-Hi-Kn010G3/TR01L013-k0 (antibody, V domains shown)
# VH: B4 VH with Q60T, D75A, L81I, A104S, G106S
# VL: B5 VL with R24Q, S25A, Q27E
# notes: one-arm
# B7: rCE115H-G1dh//-Hi-Kn010G3/L0000-k0 (antibody, V domains shown)
# VH: EVQLVETGGSLVQPGKSLKLTCATSGFTFSNAWMHWVRQSPEKQLEWVAQIKAKSNNYATYYAESVKGRFTISRDDSKSNIYLQMNSLKEEDTAVYYCRYVHYGAYYGVDAWGQGTSVTVSS
# VL: B4 VL with P28S
# notes: one-arm
# B8: TR01H082-E22Hh/none-Hi-Kn010G3/TR01L024-k0 (antibody, V domains shown)
# VH: B4 VH with Q60T
# VL: B5 VL with R24Q, S25A, Q27E, L29P, R61S, G94T, V109L, E112K
# notes: one-arm
# B9: TR01H040-E22Hh/none-Hi-Kn010G3/TR01L011-k0 (antibody, V domains shown)
# VH: B4 VH with Q60T, D75A, L81I, A104S, G106S
# VL: B5 VL with R24Q, S25A, Q27E, L42Q, S48A, Q50R
# notes: one-arm
# B10: TR01H040-E22Hh/none-Hi-Kn010G3/TR01L018-k0 (antibody, V domains shown)
# VH: B4 VH with Q60T, D75A, L81I, A104S, G106S
# VL: B5 VL with R24Q, S25A, Q27E, L29P, R61S, V109L, E112K
# notes: one-arm
# B11: hCE115HA-E22Hh/none-Hi-Kn010G3/L0000-k0 (antibody, human IgG1, kappa, L234A L235A, N297A, V domains shown)
# VH: B4 VH with L11V, D53A, Q56N, Q60T, A104G, G106Y
# VL: B4 VL with P28S
# notes: one-arm; also called hCE115HA-E22Hh//-Hi-Kn010G3/L0000-k0
# B12: TR01H040-E22Hh/none-Hi-Kn010G3/L0000vk1-k0 (antibody, V domains shown)
# VH: B4 VH with Q60T, D75A, L81I, A104S, G106S
# VL: DIQMTQSPSSLSASVGDRVTITCRSSQSLVHSNRNTYLHWYQQKPGKAPKLLIYKVSNRFSGVPSRFSGSGSGTDFTFTISSLQPEDIATYYCGQGTQVPYTFGQGTKVEIK
# notes: one-arm
# B13: hCE115HAa-E22Hh/none-Hi-Kn010G3/L0000-k0 (antibody, V domains shown)
# VH: B4 VH with L11V, R16G, D53A, Q56N, Q60T, A104G, G106Y
# VL: B4 VL with P28S
# notes: one-arm
# B14: TR01H108-E22Hh/none-Hi-Kn010G3/L0011-k0 (antibody, V domains shown)
# VH: B4 VH with Q60T, Y62T
# VL: B4 VL
# notes: one-arm
# B15: TR01H107-E22Hh/none-Hi-Kn010G3/L0011-k0 (antibody, V domains shown)
# VH: B4 VH with Q60T, Y62Q
# VL: B4 VL
# notes: one-arm
# B16: TR01H104-E22Hh/none-Hi-Kn010G3/L0011-k0 (antibody, V domains shown)
# VH: B4 VH with Q60T, Y62I
# VL: B4 VL
# notes: one-arm
# B17: TR01H100-E22Hh/none-Hi-Kn010G3/L0011-k0 (antibody, V domains shown)
# VH: B4 VH with Q60S
# VL: B4 VL
# notes: one-arm
# B18: TR01H112-E2702GsKsc/none-Hi-E2704sE/L0011-k0 (antibody, V domains shown)
# VH: B4 VH with L11V, R16G, D75A, L81I, A111I
# VL: B4 VL
# notes: one-arm
# B19: TR01H100-E2702GsKsc/none-Hi-E2704sE/L0011-k0 (antibody, V domains shown)
# VH: B4 VH with Q60S
# VL: B4 VL
# notes: one-arm
# B20: TR01H101-E22Hh/none-Hi-Kn010G3/L0011-k0 (antibody, V domains shown)
# VH: B4 VH with Q60V
# VL: B4 VL
# notes: one-arm
# B21: TR01H114-E2702GsKsc/none-Hi-E2704sE/L0011-k0 (antibody, V domains shown)
# VH: B4 VH with L11V, R16G, Q60S, D75A, L81I, A111I
# VL: B4 VL
# notes: one-arm
# B22: TR01H103-E22Hh/none-Hi-Kn010G3/L0011-k0 (antibody, V domains shown)
# VH: B4 VH with Q60T, Y62G
# VL: B4 VL
# notes: one-arm
# B23: TR01H106-E22Hh/none-Hi-Kn010G3/L0011-k0 (antibody, V domains shown)
# VH: B4 VH with Q60T, Y62P
# VL: B4 VL
# notes: one-arm
# B24: TR01H015-E22Hh/none-Hi-Kn010G3/L0000-k0 (antibody, human IgG1, kappa, L234A L235A, N297A)
# heavy: B1 heavy with V11L, A53G, D75A, L81I, Y104S, Y105A, Y106S, A111I
# light: B1 light
# notes: one-arm
# B25: hCE115HA-E22stHh/none-Hi-stKn010G3/L0000-k0 (antibody, V domains shown)
# VH: B4 VH with L11V, D53A, Q56N, Q60T, A104G, G106Y
# VL: B4 VL with P28S
# notes: one-arm
# B26: TR01H105-E22Hh/none-Hi-Kn010G3/L0011-k0 (antibody, V domains shown)
# VH: B4 VH with Q60T, Y62L
# VL: B4 VL
# notes: one-arm
# B27: TR01H111-E2702GsKsc/none-Hi-E2704sE/L0011-k0 (antibody, V domains shown)
# VH: B4 VH with L11V, R16G, R19K, Q60T, D75A, L81I, A111I
# VL: B4 VL
# notes: one-arm
# B28: TR01H109-E22Hh/none-Hi-Kn010G3/L0011-k0 (antibody, V domains shown)
# VH: B4 VH with Q60T, Y62V
# VL: B4 VL
# notes: one-arm
# B29: CE115HA251-E22Hh//-Hi-Kn010G3/L0000-k0 (antibody, human IgG1, kappa, L234A L235A, N297A, V domains shown)
# VH: B4 VH with L11V, D53A, Q56N, Q60T, A104Y, A105Y, G106Y
# VL: B4 VL with P28S
# notes: one-arm
# B30: TR01H110-E2702GsKsc/none-Hi-E2704sE/L0011-k0 (antibody, V domains shown)
# VH: B4 VH with L11V, R19K, Q60T
# VL: B4 VL
# notes: one-arm
# B31: TR01H102-E22Hh/none-Hi-Kn010G3/L0011-k0 (antibody, V domains shown)
# VH: B4 VH with Q60T, Y62F
# VL: B4 VL
# notes: one-arm
# B32: hCE115HA-G1dh//-Hi-Kn010G3/L0000-k0 (antibody, V domains shown)
# VH: B4 VH with L11V, D53A, Q56N, Q60T, A104G, G106Y
# VL: B4 VL with P28S
# notes: one-arm
# Biological target: T1, soluble human CD3 epsilon chain (human, UniProt P07766 23-126)
# T1 construct: also called CD3ε
# Experiment: SPR
# T1 sequence (P07766 23-126 limits assumed): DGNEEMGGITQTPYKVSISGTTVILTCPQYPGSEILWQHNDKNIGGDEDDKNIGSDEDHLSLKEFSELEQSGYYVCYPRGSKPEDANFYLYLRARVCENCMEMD
row,Kd,Binder
1,14.8 nM,B1
2,4.78 nM,B2
3,6.95 nM,B3
4,14.6 nM,B4
5,42.2 nM,B5
6,41.5 nM,B6
7,57.6 nM,B7
8,47.6 nM,B8
9,35.7 nM,B9
10,45.1 nM,B10
11,143 nM and 124 nM,B11
12,46.9 nM,B12
13,108 nM,B13
14,69.8 nM,B14
15,69.1 nM,B15
16,82.6 nM,B16

row,Kd,Binder
1,62.5 nM,B17
2,5.12 nM,B18
3,11.1 nM,B19
4,78.7 nM,B20
5,4.22 nM,B21
6,77.2 nM,B22
7,100 nM,B23
8,61.3 nM,B24
9,51.7 nM,B25
10,69.5 nM,B26
11,4.91 nM,B27
12,70.6 nM,B28
13,22.3 nM,B29
14,12.6 nM,B30
15,85.4 nM,B31
16,65 nM,B32
